Assay [1] concerns the target T1, programmed death-1 receptor (PD-1), mouse, on cells (mouse, UniProt Q02242 25-288).
T1 sequence (looked up): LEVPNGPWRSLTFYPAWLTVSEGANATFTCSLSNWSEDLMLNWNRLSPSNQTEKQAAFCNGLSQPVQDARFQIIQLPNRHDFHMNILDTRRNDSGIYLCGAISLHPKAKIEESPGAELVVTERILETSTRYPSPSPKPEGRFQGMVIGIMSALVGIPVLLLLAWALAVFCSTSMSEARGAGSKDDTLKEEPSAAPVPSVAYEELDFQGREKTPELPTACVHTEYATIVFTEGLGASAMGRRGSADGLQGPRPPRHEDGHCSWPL
Nature of the assay: cell-based or functional assay.

In assay [2] the target is T1, programmed death-1 receptor (PD-1), …. Nature of the assay: flow cytometry, 4 °C 30 min, primary B cells (FIG. 8d). For orientation: A flow cytometer gives signals particle by particle.
Assay [3] shares this target. Nature of the assay: flow cytometry, 4 °C 30 min, primary T cells (FIG. 8c).
For assay [4] the target is unchanged. Nature of the assay: flow cytometry, 37 °C 30 min, primary B cells (FIG. 8f).
For assay [5] the target is unchanged. Nature of the assay: flow cytometry, 37 °C 30 min, primary T cells (FIG. 8e).
Assay [6] shares this target. Nature of the assay: flow cytometry, 4 °C 30 min, EL4 against B16 cells (FIG. 10c).
The target is the same in assay [7]. Nature of the assay: flow cytometry, 37 °C 30 min, EL4 against B16 cells (FIG. 10e).
Assay [8] has the same target. Nature of the assay: flow cytometry, EL4 cells, competitor PD-L1-Fc 500 nM, 4 °C (FIG. 8g).
For assay [9] the target is unchanged. Nature of the assay: flow cytometry, binding and uptake by EL4 against B16 cells (FIG. 4B).
Assay [10] shares this target. Nature of the assay: flow cytometry, EL4 cells, competitor PD-L1-Fc 500 nM, 37 °C (FIG. 8g).
Assay [11] shares this target. Nature of the assay: flow cytometry dose-response on 1 million EL4 cells, 4 °C 30 min, Alexa Fluor 647-labelled; EC50 of the PD-1^+ fraction taken as Kd (FIG. 10d).
The target of the next assay is T2, mouse serum albumin (mouse, UniProt P07724 25-608).
T2 construct: also called MSA; mouse albumin
Nature of the assay: native PAGE of a 1-to-1 mixture (FIG. 14a).

In the next assay the target is T3, human serum albumin (human, UniProt P02768 25-609).
T3 construct: also called HSA
Nature of the assay: native PAGE of a 1-to-1 mixture (FIG. 14b).

The target in assay [12] is T1, programmed death-1 receptor (PD-1), …. Nature of the assay: flow cytometry, Alexa Fluor 647-labelled ABD-PE, 4 °C 30 min, primary T cells, primary B cells, EL4 and B16 cells.

What is called Kd is the equilibrium constant for the complex coming apart. Low values mean tighter binding, high ones weaker binding.

B1: αPD-1-ABD-PE (other)
chain: HHHHHHGGGGSEVQLQESGPGLVKPSQSLSLTCSVTGYSITSSYRWNWIRKFPGNCLEWMGYINSAGISNYNPSLKRRISITRDTSKNQFFLQVNSVTTEDAATYYCARSDNMGTTPFTYWGQGTLVTVSSGGGGSGGGGSGGGGSDIVMTQGTLPNPVPSGESVSITCRSSKSLLYSDGKTYLNWYLQRPGQSPQLLIYWMSTRASGVSDRFSGSGSGTDFTLKISGVEAEDVGIYYCQQGLEFPTFGCGTKLELKGGGGSGGGGSGGGGSLAEAKVLANRELDKYGVSDFYKRLINKAKTVEGVEALKLHILAALPGGGGSGGGGSGGGGSRHRQPRGWEQLPTGAEFLGDGGDVSFSTRGTQNWTVERLLQAHRQLEERGYVFVGYHGTFLEAAQSIVFGGVRARSQDLDAIWRGFYIAGDPALAYGYAQDQEPDARGRIRNGALLRVYVPRSSLPGFYRTSLTLAAPEAAGEVERLIGHPLPLRLDAITGPEEEGGRLETILGWPLAERTVVIPSAIPTDPRNVGGDLDPSSIPDKEQAISALPDYASQPGKPPREDLK
modifications: Alexa Fluor 647 NHS ester label in the flow cytometry assays (sites not given)
notes: Order NH2-HisTag-GGGGS-VH-(GGGGS)3-VL-(GGGGS)3-ABD-(GGGGS)3-PE; made in E. coli Shuffle T7; theoretical molecular weight 57.9 kDa; also called the immunotoxin; the toxin
For the molecule B1, in [1], the “IC50 of cytotoxicity to EL4 cells (FIG. 2C)” value is 1.1 nM; the “IC50 of cytotoxicity to PD-1^+ primary B cells (72 h, live cell count by flow cytometry)” value is 0.47 nM; the “IC50 of cytotoxicity to PD-1^+ primary T cells (72 h, live cell count by flow cytometry)” value came out at 0.43 nM; the “IC50 of cytotoxicity to wildtype EL4 cells (MTS assay, 72 h)” value was 0.64 nM. Moreover, the “fold toxicity, wildtype EL4 cells against PD-1 knockout EL4 cells” value in assay [1] was > 1000 fold. For the same molecule, in assay [2], the “fold MFI, PD-1^+ over PD-1^- primary B cells” value was > 5 fold. In [3], the “fold MFI, PD-1^+ over PD-1^- primary T cells” value is > 4 fold. Besides, the “fold MFI (binding and uptake), PD-1^+ over PD-1^- primary B cells” value in assay [4] is > 7 fold. The “fold MFI (binding and uptake), PD-1^+ over PD-1^- primary T cells” value in assay [5] was > 8 fold. Moreover, the “fold MFI, EL4 over B16 cells” value in [6] is > 3 fold. The “fold MFI (binding and uptake), EL4 over B16 cells” value in assay [7] was ~12 fold. In addition, the “fold decrease of MFI with PD-L1-Fc against αPD-1-ABD-PE alone” value in assay [8] was ~8 fold. In addition, the “fold binding and uptake, EL4 over B16 cells” value in assay [9] turned out to be 11.7 fold. In assay [10], the “fold decrease of MFI with PD-L1-Fc against αPD-1-ABD-PE alone” value is ~25 fold. Besides, the affinity in assay [11], expressed as Kd, was 12 nM.

B2: αPD-1 (full IgG) (antibody, V domains shown)
VH: EVQLQESGPGLVKPSQSLSLTCSVTGYSITSSYRWNWIRKFPGNRLEWMGYINSAGISNYNPSLKRRISITRDTSKNQFFLQVNSVTTEDAATYYCARSDNMGTTPFTYWGQGTLVTVSS
VL: DIVMTQGTLPNPVPSGESVSITCRSSKSLLYSDGKTYLNWYLQRPGQSPQLLIYWMSTRASGVSDRFSGSGSGTDFTLKISGVEAEDVGIYYCQQGLEFPTFGGGTKLELK
notes: Rat anti-mouse PD-1 mAb, IgG2a, κ; also called intact αPD-1; αPD-1 IgG
In [11], B2 registered a Kd of 3.4 nM.

B3: αPD-1-PE (other)
chain: HHHHHHGGGGSEVQLQESGPGLVKPSQSLSLTCSVTGYSITSSYRWNWIRKFPGNCLEWMGYINSAGISNYNPSLKRRISITRDTSKNQFFLQVNSVTTEDAATYYCARSDNMGTTPFTYWGQGTLVTVSSGGGGSGGGGSGGGGSDIVMTQGTLPNPVPSGESVSITCRSSKSLLYSDGKTYLNWYLQRPGQSPQLLIYWMSTRASGVSDRFSGSGSGTDFTLKISGVEAEDVGIYYCQQGLEFPTFGCGTKLELKGGGGSGGGGSGGGGSRHRQPRGWEQLPTGAEFLGDGGDVSFSTRGTQNWTVERLLQAHRQLEERGYVFVGYHGTFLEAAQSIVFGGVRARSQDLDAIWRGFYIAGDPALAYGYAQDQEPDARGRIRNGALLRVYVPRSSLPGFYRTSLTLAAPEAAGEVERLIGHPLPLRLDAITGPEEEGGRLETILGWPLAERTVVIPSAIPTDPRNVGGDLDPSSIPDKEQAISALPDYASQPGKPPREDLK
notes: Control protein without the ABD
Regarding B3, the binding result in the assay with mouse serum albumin and with human serum albumin was “no binding” throughout.

B4: ABD-PE (other)
chain: HHHHHHGGGGSLAEAKVLANRELDKYGVSDFYKRLINKAKTVEGVEALKLHILAALPGGGGSGGGGSGGGGSRHRQPRGWEQLPTGAEFLGDGGDVSFSTRGTQNWTVERLLQAHRQLEERGYVFVGYHGTFLEAAQSIVFGGVRARSQDLDAIWRGFYIAGDPALAYGYAQDQEPDARGRIRNGALLRVYVPRSSLPGFYRTSLTLAAPEAAGEVERLIGHPLPLRLDAITGPEEEGGRLETILGWPLAERTVVIPSAIPTDPRNVGGDLDPSSIPDKEQAISALPDYASQPGKPPREDLK
modifications: Alexa Fluor 647 NHS ester label in the flow cytometry assays (sites not given)
notes: Untargeted control protein without the αPD-1 scFv; also called labeled ABD-PE
In the case of B4, the binding result in assay [12] was “no binding (tested: 100 nM)”.
